Reference: the nanobody polyreactivity screen of Harvey et al. (2022)

Assay: yeast display, Sf9 membrane polyspecificity reagent, FACS + sequencing; frameworks hold sequencing errors
Summary of the method: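 A nanobody's polyreactivity label depends on the gate it was sorted from. Yeast display cells were stained with 10% biotinylated, detergent-solubilized Sf9 membrane reagent for 1 hour at 4 °C, enriched on streptavidin microbeads and sorted by FACS. The low and high (top ~1%) gates were set on anti-HA fluorescence for expression and streptavidin fluorescence for reagent binding.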

Sequence | polyreactivity (PSR sort gate)
QVQLVESGGGLVQAGGSLRLSCAASGLTFRYYSMGWYRQAPGKERELVAAISRRSGSTYYADSVKGRFTISGDNAKNTVYLQMNSLKPEDTAVYYCNADSTITGNLKRYDYWGQGTQVTVSS | high polyreactivity
QVQLVESGGGLVQAGGSLRLSCAASGSTFSDNAMGWYRQAPGKERELVAANTSGGSTYYADSVKGRFTISRDNAKNTVYLQMNSLKPEDTAVYYCAADYWGQGTQVTVSS | low polyreactivity
QVQLVESGGGLVQAGGSLRLSCAASGSIFVLNAMGWSRQAPGKETELVAAISYSGTGTYYADSVKGRFTISRDNAKNTVYLQMNSLKPEDTAVYDCAADYYYRYRIYDYWGQGTQVTLSS | low polyreactivity
QVQLVESGGGLVQAGGSLRLSCAASGYTFAYYVMGWYRQAPGKERELVATIRSRAGRTYYADSVKGRFTISRDNAKNTVYLQLNSLKPEDTAVYYCAAGWYYTYDYWGQGTQVTVSS | high polyreactivity
QVQLVESGGGLVQAGGSLRLSCAASGIIFDYTAMGWYRQAPGKERELVAAITSTDNTNYADSVKGRFTISRDNAKNTVYLQMNSLKPEDTAVYYCNTDYWLSVVYAMDYWGQGTQVTVSS | low polyreactivity
QVQLVESWGGLVQAGGSLRLSCDASGSTFDGNDMGWSRPAPGKQRELVAAITIGGGSTYYADSVKGRFTISRDNAKNTVYLQMNSLKPEDTADYYCATEWVTGSEDYDYWGQGTQVTVSS | low polyreactivity
QVQLVESAGGLVQAGGSLRVSCAASGSTFSRYTMGWYRQAPGKERELVAAIRWSSGRTYYADSVKGRFTISRDNAKNTVYLQMNSLKPEDTAVYYCAALFPRGQADYAYWGQGTPVTVSS | high polyreactivity
QVQLLESGGGLVQAGGSLRLSCAASGRTFRYYAMGWYRQAPGKERELVAAITANGGSTYYADSVKGRFTISRDNAKNTVYLQMNSLKPEDTAVYYCAAKYNTKLYYWGQGTQVTVSS | high polyreactivity
QVQLVESGGGLVQAGGSLRLSCAASGITFQYYAMGWYRQAPGKERELVASISYRGGRTYYADSVKGRFTISRDNAKNTVYLQMNSLKQEDTSVYYCAADWRYTTFWTLRYYGFDYWGQGTQVTVSS | high polyreactivity
QVQLVESLGGLVQAGGSLRLSCAASGFTFGAYAMGLYRPAPGKERELVATMDWRGSSTYYADSVKGRFTISRDNAKNTVYLQINCLKPVDTAVYYCAARLARGSYAYEYWGHGTQVTVSS | low polyreactivity
QVQLVESGGGLVQAGGSLRLSCAASGFTFNSYDMYWVRQAPGKGLEWVSSINTNGGSTYYADSVKGRFTISRDNAKNTVYLQMNSLKPEDTAVYYCAADGDTVGHSYRYDYWGQGTQVTVSS | low polyreactivity
QVQLVESGGGLVQAGGSLRLSCPASVLILVYYAMGWYRQAPGKERELVAAINPGGSTKYADSVKGRFTISRDNAKNTVYLQMNSLKQEDTEVYYCNADGEGADSDYDYWGQGTKVTVSS | low polyreactivity
QVQLVESGGGLDQAGGSLRLSCAASGSTFTSNAMGWYRQAPGKERELVAAITWSGARTYYADSVKGRFTISRDNAKNTVYLQLNSLKPEDTAVYYCAAYIAGVTGGSGYYYWGQGTQVTVSS | high polyreactivity
QVQLVESGGGLFQAGGSLRLSCAASGSTLYEYAMGWYRQAPGKERELVAAINWSGGSTYYADSVKGRFTISRDNAKNTVYLQMNSLKPEDTAVYYCNRVKTGSTYRRRYWSMGYWGQGTQVTVSS | high polyreactivity
QVQLVESGGGLVQAGGSLRLSCAASGFIFRRYAMGWYRQAPGKERELVARISTIGGNTFYADSVKGRFTISRDTAKNTVYLQMNSLKPEDTAVYYCATTGGPSWRKYYSWGQGTQVTVSS | high polyreactivity
QVQLVESVGGLVQAGGSLRLSCAASGSTSYDYAMGWNRQAPGKERELVAAISGSSSTTYYADSVKGRFTISRDNAKNTVYLQMNSLKPEDTAVYYCNAVTTSGSGYGYWGQGTQVTVSS | low polyreactivity
QVQLVESGGGLVQAGGSLRLSCAASGLTFWYYVMGWYRQAPGKERELVAAINIGGSTKYAYSVKGRFTISRDNAKNTVYLQMNSLKPEDTAVYYCAAQYYYTGTRSIRSFDYWGQGTQVTVSS | low polyreactivity
QVQLVESGGGLVQAGGSLRLSCAASGRTFDPYARGGYRQAPGKERELVASISRGGSTYADSVKGRFTISRDNAKNTVYLQMNSLKPEDTAVYYCNTSLYTEGDAMDYWGQGTQVTVSS | low polyreactivity
QDQLVDSGGGLVQAGGSLSLSCAASGRNFGLNAKGWYRQAPGKEREFVAAIDWNDASTFYADSVKGRFTISRDNAENTVYLQMNSLKPVETAVYYCAAPWWVTTGTKFDYWGQGTQVTVSS | high polyreactivity
QVQLVESGGGLVQAGGSLRLSCAASGSTFYFNTMGWYRQAPGKERELVAAINSIGGSTYYADSVKGRFTISRDNAKNTVYLQMNSLKPEDTAVYYCAKLKRLYYWSSHTSYGYDYWGQGTQVTVSS | high polyreactivity
QVQLVESGGGLVQAGGSLRLSCAASGSIFQGYAMGWYRQAPGKERELVARITSDDDSTYYADSVKGRFTISRDNAKITVYLQMNSLKPEDTAVYYCNADYYWTSLAMDSWGQGTKVTVSS | low polyreactivity
QVQLVESAGGLVQAGGSLSLSCAASGRTFGQYPMGWYRKAPGKERELVAAITRSAGSTYYADSVKGRFTISRDNAKNNVYLQMNSLKPEDTAVSYCAKRFYWSVDGYRTAKYYYWGQGTQVTVSS | high polyreactivity

Sequence | polyreactivity (PSR sort gate)
QVQLVESGGGLVQAGGSLRLSCAASGNTFEYYVMGWYRQAPGKERELVAAITWSTGSTYYADSVKGRFTISRDNAKNTVYLQKNSLKPEDTAVYYCAALYYFIFGRPTRFDYWGQGTQVTVSS | low polyreactivity
QVQLVESGGGLVQAGGSHRLSCAASGFTFGRYPMGWYRQAPGKERELVAAISSSGSSTYYSDSVKGRFTISRDNAKNTVYLQMNSLKQEDTAVYYCAAAIYVSDRHTYNYWGQGSQVTVSS | high polyreactivity
QVQLVESGGGLVQAGGSLRLSCAASGSIFGTNTMGWYRQAPGKEREFVAVITGSTTSTYYADSVKWRFTISRDNANNTVYLQMNSLIPEDTAVYYCADEPGSRSYGGDYWGQGTQVTVSS | high polyreactivity
QVQLVESGGGLVQAGGSLRLSCAASGRIFRNYAMGWYRQAPGKERELVPAITRGGSTYYAVSVKGRFSISRDNAKNTVYLQMNSLKPEDNAVYYCNKAWPYSHPVQYHRSRSYDYWGQGTQVTVSS | high polyreactivity
QVQLVESGGGLVQAGGSLRLSCAASGSTFSINAMGWYRQAPGKERELVAAISSGGSTYYADSVKGRFTISRDNAKNTVYLQMNSLKPEDTAVYYCAVDPPWTYWSTYRYDYWGQGTQVTVSS | low polyreactivity
QVQLVESGGGLVQAGGSLRLSCAASGFIYSSNAMGWYRQAPGKERELVAAISSSGGRTYYAVSVKGRFTISRDNAKNTVYLQMNRLKPEDTAVYYCNAYPRSRGSANDWGQGTQVPVSS | high polyreactivity
QVQLVESGGGLVQAGGSLRLSCAASGRIFTIYAMGWYRQAPGKERELVATISRRGGSTYYADSVKGRFTISRDNAKNTVYLQMNSLKPEDTAVYYCAADSVITWWAYDYWGQGTQVTVSS | high polyreactivity
QVQLVESGGGLVQAGGSLRLSCAASGRIFHRYAMGWYRQAPGKERELVASISRGDSTNYADSVKGRFTISRDNAKNTVYLQMNSLKPEDTAVYYCAARSFTRYRYYYWGQGTQVTVSS | high polyreactivity
QVQLVESGGGLVQAGGSLRLSSAASGFIFEDYAMGWYREAPGKARELFAAISRRGGSTYYADSVKGRFTISRDNAQNTVYLQMNSLKPEDTADYYCAARKRYRPGERYEYWGQGTQVTVSS | high polyreactivity
QVQLVESGGGLVQAGGSLRLSCAASGRIFLSYAMGWYRQAPGKERELVAAIRSTGTRTYYADSVKGRFTISRDNAKNTVYLQMNSLKPEDTAVYYCAVGDYGLWSYDYWGQGTQVTVSS | low polyreactivity
QVQLVESGGGLVQAGGSLRLSCAASGRICSQYAMGWYRQAPGKERELVAAISTSGDRTYYADSVKGRFTISRDNAQNSGYLQLNSLKPEDTAVYYCAKDGPYTYGRDIYEYWGQGTQVTVSS | low polyreactivity
QVQLVESGGGLVQAVGSLRLSCAASGTISVANAMGWYRQAPGKERELVAVINTSGTRTYYADSVKGRFTISRDNAKNTVYLQMNSLKPEDTAVYYCAARLRGVQGYEYWGQGTQVTVSS | low polyreactivity
QVQLVESGGGLVQAGGSLRLSCAASGITFGYYAMGWYRQAPGKEREFVAGITTSGGTTYYADSVKGRFTISRDNENNTVYLHMNSLKPEDTAVYYCAVYGGVKRGSFYYWGQGTQVTVSS | low polyreactivity
QVQLQERAAWCRRAGSLRLSCAASGNISDYYFMGWYRQAPGKERERVAAIAPGSKTYYADSVKGRFTISRDNAKNTVYLQMNSLKPEDTAVCFCAANSTQYTWFDYWGQGTQVPVSS | low polyreactivity
QVQLVESGGGLVQAGGSLRLSSAASGSTFRYNALGWYRQAPGKERELVAAISSSGGSTRYADSVKGRFTISRDNEKYTDYLQMNSLKPEDTAVYYCDVRFYDWRYYYWGQGTQVTVSS | high polyreactivity
QVQLVESGGGLVQAGGSLRLSCAASGSTLSYYAMGWYRPAPGKDRELVAAISFSGGITYYADSVKGRFTISRDNAKNTVYLQMNSLKPEDTAVYYCNAEYQVYRAYVIWYDYWGQGTQVTVSS | high polyreactivity
QVQLVESGGGLVQAGGSLRLICAASGSTFYWYMGWYRQAPGKERELVAAITSGGRTYYADSVKGRFTISRDNAKNTVYLQMNSLKPEDTAVYYCATTRRYAYRGGHNYWGQGTQVTVSS | high polyreactivity
QGQLVESGGGLVQAGGSLRLSCAASGSIFSVNTMGWYRQAPGKERELVATIRTGDSTNYADSVKGRFTISRDNAKNTVYLQMNSLKPEDTAVYYCAADWSSLNFDYWGQGTQVTVSS | low polyreactivity
QVQLEESGGGLVQAGGSLRLSCAASGSTYGNSAMAGYRQAPGKERELVAAINGGPNTYYADSVKGRFTISRDNAKKTVYLQMNSLKPEDTAVYYCAAEAQAIGFHWGVDGDSWGQGTQVTVSS | low polyreactivity
QVQLVESGGGIVQAGGSLRLSCAASGRTLISYAMGWYRQAPGKERELVAAISWGGSSTYYADSVKWRFTISRDNAKNTVYLQRNSLKPEDTAVYYCNTVYYYWGKWRGTYDYWGLGTQVTVSS | high polyreactivity
QVQLVESGGGLGQAGGSLRLSCAASGIIFQYYAMGWYRPAPGKERELVAVISSSGTNTYYADSVKGRFTISRDNAKNTVYLQMNSLKPEDTAVYYCNKVYRWFTRFDYWGQGTQVTVSS | high polyreactivity
